Bridge positions count the residues as written; N and C are the ends. Square brackets hold non-standard residues; d marks the D form. Ends that are not written are not given here. S5 = C=CCCC[C@](C)(N)C(=O)O
Target: T1, VLCAD (Mus musculus, UniProt P50544)
T1 construct: As for native VLCAD from MEF lysates; endogenous in cells; host or cells: SV-40-transformed wild-type mouse embryonic fibroblasts (lysate)
T1 sequence (P50544 42-656): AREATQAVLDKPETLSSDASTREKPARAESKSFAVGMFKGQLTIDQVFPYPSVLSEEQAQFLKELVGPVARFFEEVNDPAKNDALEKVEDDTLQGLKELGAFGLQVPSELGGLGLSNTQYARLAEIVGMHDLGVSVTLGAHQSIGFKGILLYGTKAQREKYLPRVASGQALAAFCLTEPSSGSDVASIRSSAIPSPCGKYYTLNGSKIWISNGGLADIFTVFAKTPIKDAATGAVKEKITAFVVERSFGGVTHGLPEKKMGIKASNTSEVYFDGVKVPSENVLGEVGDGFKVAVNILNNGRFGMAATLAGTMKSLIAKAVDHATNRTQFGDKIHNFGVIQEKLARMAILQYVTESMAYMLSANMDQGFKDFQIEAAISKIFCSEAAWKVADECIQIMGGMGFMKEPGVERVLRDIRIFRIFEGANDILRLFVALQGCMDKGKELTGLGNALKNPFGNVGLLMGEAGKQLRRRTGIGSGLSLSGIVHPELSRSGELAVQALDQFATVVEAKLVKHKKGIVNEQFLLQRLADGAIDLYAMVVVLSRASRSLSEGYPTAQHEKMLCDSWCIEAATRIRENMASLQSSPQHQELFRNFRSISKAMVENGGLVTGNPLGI
Test: Biotinylated SAHB streptavidin pulldown from MEF lysates with MS-based protein identification
Format: binding
Conditions: wild-type MEF lysates; three biological replicates; thresholds fold change >8 and p<0.005 versus vehicle
Protocol: An exploratory proteomics analysis was conducted to identify proteins that interact with the MCL-1 BH3 domain helix. An extensive library of MCL-1 stapled BH3 peptides (FIG. 2) was generated to both identify novel protein interactors by mass spectrometry and then deploy the stapled peptide constructs as novel probes to dissect and pharmacologically modulate the identified protein interactors and associated signaling pathways. As an example, an N-terminally biotinylated stapled peptide designed based on the sequence of MCL-1's BH3 domain (Btn-MCL-1 SAHBD), or vehicle, was incubated with wild-type mouse embryonic fibroblast (MEF) lysates, followed by high stringency streptavidin capture. To validate the proteomics workflow and ensure that Btn-MCL-1 SAHBD could, in fact, engage protein interactors in a lysate, eluates were first run on a gel for anti-MCL-1 Western analysis. […]
Wild-type MEFs were trypsinized, washed once with cold PBS, and lysed on ice with NP-40 lysis buffer (50 mM Tris, pH 7.4, 150 mM NaCl, 0.5% (v/v) NP-40, complete protease inhibitor pellet (Roche)) using 1 ml of lysis buffer for every 10 million cells lysed. Cellular debris was pelleted at 14,000 g for 10 min at 4° C., and the supernatant was quantified using the BCA Protein Assay Kit (Thermo Fisher Scientific). […]

Substance: MCL-1 SAHBD: hydrocarbon-stapled peptide mimicking the MCL-1 BH3 domain (Stabilized Alpha-Helix of BCL-2 Domain), SEQ ID NO:19 (RKALETLRRVGDGV[S5]RNH[S5]TAF; staple 15-19)
- VLCAD identified by MS in pulldown eluates: repeatedly identified as a high stringency interactor
